Experimental data reported in paper PMC7687889, “Molecular basis of EphA2 recognition by gHgL from gammaherpesviruses” (Nature Communications, 2020).

Molecular target: T1, KSHV glycoprotein L (gL), residues 21-167 (Kaposi sarcoma-associated herpesvirus …, UniProt F5HDB7 21-167)
T1 construct: source: High Five cells (baculovirus), secreted with gH, purified (HisTrap, Resource S, Superdex 200)
Test: crystal structure; KSHV gHgL-LBD complex, mixed on ice 1 h and purified on Superdex 200 Increase; 3.2 Å
Settings: both partners purified

B1: KSHV glycoprotein H (gH), residues 22-698 (domain or fragment)
chain: ATGALPTTATTITRSATQLINGRTNLSIELEFNGTSFFLNWQNLLNVITEPALTELWTSAEVAEDLRVTLKKRQSLFFPNKTVVISGDGHRYTCEVPTSSQTYNITKGFNYSALPGHLGGFGINARLVLGDIFASKWSLFARDTPEYRVFYPMNVMAVKFSISIGNNESGVALYGVVSEDFVVVTLHNRSKEANETASHLLFGLPDSLPSLKGHATYDELTFARNAKYALVAILPKDSYQTLLTENYTRIFLNMTESTPLEFTRTIQTRIVSIEARRACAAQEAAPDIFLVLFQMLVAHFLVARGIAEHRFVEVDCVCRQYAELYFLRRISRLCMPTFTTVGYNHTTLGAVAATQIARVSATKLASLPRSSQETVLAMVQLGARDGAVPSSILEGIAMVVEHMYTAYTYVYTLGDTERKLMLDIHTVLTDSCPPKDSGVSEKLLRTYLMFTSMCTNIELGEMIARFSKPDSLNIYRAFSPCFLGLRYDLHPAKLRAEAPQSSALTRTAVARGTSGFAELLHALHLDSLNLIPAINCSKITADKIIATVPLPHVTYIISSEALSNAVVYEVSEIFLKSAMFISAIKPDCSGFNFSQIDRHIPIVYNISTPRRGCPLCDSVIMSYDESDGLQSLMYVTNERVQTNLFLDKSPFFDNNNLHIHYLWLRDNGTVVEIRGMY
notes: also called KSHV gH; source: High Five cells (baculovirus), secreted with gL, purified (HisTrap, Resource S, Superdex 200)
binding result: binds
